The record followed here is patent publication US20190022211A1 (CELLTRION, published 2019).

Values joined by “and” are separate entries in the source; they are usually repeats but may differ in a detail not shown here. Identical values can stand only once.

Test [1] concerns the target G protein of rabies virus Mongoose RSA , on virus (rabies virus). In words: cell-based or functional assay.
Test [2] addresses G protein of rabies virus DR Brazil , on virus (rabies virus). As to the kind of experiment: cell-based or functional assay.

B1: antibody 2 (antibody, V domains shown)
VH: EVQLVESGAEVKKPGASVKVSCKASGYTFTSYDISWVRQAPGQGLEWMGWISTYKGNTNFAQKFQDRVTLTTDTSTTTAYMELRSLTSDDTAVYYCARAKSHPFYDFWSAYYVPGAFDIWGQGTVVTVSS
VL: not shown
Turning to B1, in test [1], the “neutralizing activity (RFFIT)” value is 9.1 IU/mL and 9140 IU/mg; the “neutralizing activity (RFFIT), Titer” value was 320. Further, in test [2], the “neutralizing activity (RFFIT)” value was 1.8 IU/mL and 1800 IU/mg; the “neutralizing activity (RFFIT), Titer” value was determined as 45.

B2: antibody 1 (antibody, V domains shown)
VH: VQLLQESGPGLAKPSETLSLICTVSGGSISRRRDYWGWIRQPPGRGLEWIGSFFHRGSTYYNPSLESRVSISVDPSKNQFSLHLSSVTVADTAVYYCARHPSTPFAEYLLLPDAFDSWGQGTLVTVSS
VL: DIVMTQSPATLSVSPGERATLSCRASQSVRSSLAWYQQRPGQAPRLLISGASTRATDIPARLSGSGSGTEFTLTVSSLQSEDFAVYYCQQYSDWPLTFGGGTKVEIKR
As to B2, in test [1], the “neutralizing activity (RFFIT)” value was 7.7 IU/mL and 7710 IU/mg; the “neutralizing activity (RFFIT), Titer” value amounted to 270. Further, in test [2], the “neutralizing activity (RFFIT)” value is 2.2 IU/mL and 2240 IU/mg; the “neutralizing activity (RFFIT), Titer” value turned out to be 56.
